Patent publication US20250243282A1 (TRUEBINDING, published 2025)

Legend:
[1] = molecular target: T1, Recombinant human Gal3 (rhGal3) (TrueBinding, #QC200361) (human, UniProt P17931 2-250); assay: cell-based or functional assay
[2] = molecular target: T1, Recombinant human Gal3 (rhGal3) …; assay: cell-based or functional assay; remark: listed apart in the source
Further: test concentration or dose not given here.

B1: 849.1D2 (antibody, V domains shown)
VH: QVQLKESGPVLVAPSQSLSITCTVSGFSLSSYGVHWVRQPPGKGLEWLGVIWAGGSTDYDSALMSRLSISKDNSKSQVFLKMDSLQTDDTAMYYCAKPPYDYDGAWFAYWGQGTLVTVSA
VL: DVVMTQTPKFLLVSAGDRVTITCKASQSVSSDVAWYQQKPGQSPKLLIYFASNRYTGVPDRFTGSGYGTDFTFTISTVQAEDLAVYFCQHNYISPFTFGGGTKLEIK
- % inhibition of IL-6 secretion [1]: 26.8%
- % inhibition of TNFα secretion [1]: 37%
- % inhibition of CD62L shedding [2]: 130%

B2: 13G4.2F8 (antibody, human IgG4 S228P, kappa, V domains shown)
VH: QVQLQQPGAELVKPGASVKLSCKASGYTFTSYWMHWVKQRPGQGLEWIGMIHPNSGSTDYNEKFKNKATLNVDKSSSTAYIQLSSLTSEDSAVYYCTRWGIYYYARDYWGQGTTLTVSS
VL: DIVMTQSQKFMSTSVGERVSITCKASQNVGTNVAWYQQKAGQSLELLIYGASNRHTGVPDRFTGSGSGTDFTLTITNVQSEDMTNYFCEQYSNFPLTFGAGTKLELKR
- % inhibition of IL-6 secretion [1]: 55.1%
- % inhibition of TNFα secretion [1]: 83.2%
- % inhibition of CD62L shedding [2]: 94.3%

B3: 847.15H11 (antibody, V domains shown)
VH: EVQLQQSGAEVVKPGAPVKLSCKASGYTFNNYWLNWVKQRPGRGLEWIGRIDPSDSETHYNQKFKDKATLTVDMSSSTAYIQLSSLTSEDSAVYYCARGDYYYGTRGPMDYWGQGTSVTVSS
VL: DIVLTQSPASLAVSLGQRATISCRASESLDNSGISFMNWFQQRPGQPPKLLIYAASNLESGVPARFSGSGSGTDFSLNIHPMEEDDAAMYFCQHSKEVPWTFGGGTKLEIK
- % inhibition of IL-6 secretion [1]: 94.7%
- % inhibition of TNFα secretion [1]: 100%
- % inhibition of CD62L shedding [2]: 39.3%

B4: 9H2.2H10 (antibody, human IgG4 S228P, kappa, V domains shown)
VH: QVQLQQPGAELVGPGSSVKLSCKASGYTFTNYWIHWVKQRPLQGLEWIGNIDPSDSETHYNQKFKDKATLTVDKSSSTAYMQLSSLTSEDSAVYYCARHGYYDYWGQGTTLTVSS
VL: DIVMTQSHKFMSTSVGDRVSITCKASQDVSTAVAWYQQKPGQSPKLLIYWASTRHTGVPDRFTGSGSGTDYTLTISSVQAEDLALYYCQQHYTTPLTFGAGTKLELKR
- % inhibition of IL-6 secretion [1]: -99.1%
- % inhibition of TNFα secretion [1]: -39.2%
- % inhibition of CD62L shedding [2]: 67.7%

B5: F846C.1F5 (antibody, human IgG4 S228P, kappa, V domains shown)
VH: QIQLVQSGPELKKPGETVKISCKASGYTFTNYGMNWVKQAPGKGLKWMGWINTYTGEPSYADDFKGRFAFSLETSASTAYLQINNLKNEDMATYFCARWGGYDGDYYAMDYWGQGTSVTVSS
VL: NIMMTQSPSSLAVSAGEKVTMSCKSSQSVLYSSNQKNYLAWYQQKPGQSPKLLIYWASTRESGVPDRFTGSGSGTDFTLTISSVQPEDLAVYYCHQYLSSLTFGAGTKLELKR
- % inhibition of IL-6 secretion [1]: -16%
- % inhibition of TNFα secretion [1]: 51.7%
- % inhibition of CD62L shedding [2]: 76.3%

B6: F846C.2H3 (antibody, human IgG4 S228P, kappa, V domains shown)
VH: QIQLVQSGPELKKPGETVKISCKASGYTFTNYGMNWVKQAPGKGLKWMGWINTYTGEPSYADDFKGRFAFSLETSASTAYLQINNLKNEDMATYFCARWGGYDGDYYAMDYWGQGTSVTVSS
VL: NIMMTQSPSSLAVSAGEKVTMSCKSSQSVLYSSNQKNYLAWYQQKPGQSPKLLIYWASTRESGVPDRFTGSGSGTDFTLTISSVQPEDLAVYYCHQYLSSLTFGAGTKLELKR
- % inhibition of IL-6 secretion [1]: -49.1%
- % inhibition of TNFα secretion [1]: 62.8%
- % inhibition of CD62L shedding [2]: 93.6%

B7: F846C.1B2 (antibody, human IgG4 S228P, kappa, V domains shown)
VH: QIQLVQSGPELKKPGETVKISCKASGYTFTNYGMNWVKQAPGKGLKWMGWINTYTGEPSYADDFKGRFAFSLETSASTAYLQINNLKNEDMATYFCARWGGYAGDYYAMDFWGQGTSVTVSS
VL: NIWLTQSPSSLAVSAGEMVTMTCKSSQSVLYSSNQKNYLAWYQQKPGQSPKLLIYWASTRESGVPDRFTGSGSGTDFSLTISSVQAEDLAVYYCHQYLSSLTFGAGTKLELKR
- % inhibition of IL-6 secretion [1]: -9%
- % inhibition of TNFα secretion [1]: 43.9%
- % inhibition of CD62L shedding [2]: 99%

B8: F846C.1H12 (antibody, human IgG4 S228P, kappa, V domains shown)
VH: QIQLVQSGPELKKPGETVKISCKASGYTFTNFGMNWVKQAPGKGLKWMGWINTYTGEPSYADDFKGRFAFSLETSASTAYLQINNLKNEDIATYFCARWGGYAGDYYAMDYWGQGTSVTVSS
VL: NIMMTQSPSSLAVSAGQKVTMSCKSSQSVLYSSSQKNYLAWYQQKPGQSPKLLIYWASTRESGVPDRFSGSGSGTDFTLTISSVQPEDLAVYYCHQYLSSLTFGAGTKLELKR
- % inhibition of IL-6 secretion [1]: 51.8%
- % inhibition of TNFα secretion [1]: 95.3%
- % inhibition of CD62L shedding [2]: 100%

B9: F846TC.16B5 (antibody, human IgG4 S228P, kappa, V domains shown)
VH: QIQLVQSGPELKKPGETVKISCKASGYTFTNYGMNWVKQAPGKGLKWMGWINTYTGEPAYADDFKGRFAFSLETSASTAYLQINNLKNEDMATYFCARWGGYDGDYYAMDYWGQGTSVTVSS
VL: NIMMTQSPSSLAVSAGEKVTMSCKSSQSVLYSSNQKNYLAWYQQKPGQSPKLLIYWASTRESGVPDRFTGSGSGTDFTLTISSVQAEDLAVYYCHQYLSSLTFGAGTKLELKR
- % inhibition of IL-6 secretion [1]: -204%
- % inhibition of TNFα secretion [1]: -11.4%
- % inhibition of CD62L shedding [2]: 84.2%

B10: 847.15D12 (antibody, V domains shown)
VH: QVQLQQSGAELMKPGASVKISCKATGYTFTNYWIEWVKQRPGHGLEWIGEFLPGDGSSHYNEKFKGKATFTSDTSSNTAYIHLTSLTSEDSAVYYCVRDDYDSDYWAQGTTLTVSS
VL: QAVVTQESALTTSPGETVTLTCRSSTGAVTTSNYANWVQEKPDHLFTGLIGGTNNRAPGVPARFSGSLIGDKAALTITGAQTEDEAIYFCALWYSNHLVFGGGTKLTVL
- % inhibition of IL-6 secretion [1]: -71.9%
- % inhibition of TNFα secretion [1]: -153%
- % inhibition of CD62L shedding [2]: 15.4%

B11: 847.20H7 (antibody, V domains shown)
VH: QVQLQQSGAELVRPGASVNLSCKASGYTFTNYWMNWVKQRPGQGLEWVGMIDPSDSETHYNQMFKDKATLTIDKSSSIAYMQLSSLTSEDSAVYYCARWGAMDYWGQGTSVTVSS
VL: DIVMTQSHKIMSTSVGDRVSITCKASQDVSTTVAWFQQKPGQSPKLLLYWASTRHTGVPDRFTGSGSGTDYTLTISSVQAEDLALYYCQQHYSPPFTFGSGTKLEIK
- % inhibition of IL-6 secretion [1]: -155%
- % inhibition of TNFα secretion [1]: -185%
- % inhibition of CD62L shedding [2]: 63.4%

B12: 847.12C4 (antibody, V domains shown)
VH: QVQLKESGPDLVQPSQTLSLTCTVSGFSLTIYGVHWVRQPPGKGLEWVGTVAWDDKKYYNSPLQSRLSISRDTSKNQVFLKLSSLQTEDTAMYYCTMTGGPINYWGPGTSVTVSS
VL: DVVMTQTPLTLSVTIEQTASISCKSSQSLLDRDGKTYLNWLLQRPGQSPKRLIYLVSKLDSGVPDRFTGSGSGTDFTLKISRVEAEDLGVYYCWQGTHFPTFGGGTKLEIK
- % inhibition of IL-6 secretion [1]: -0.7%
- % inhibition of TNFα secretion [1]: -5.4%
- % inhibition of CD62L shedding [2]: 150%

B13: 847.27B9 (antibody, V domains shown)
VH: QIQLVQSGPELKKPGETVKISCKASGYTFTNYGMNWVKQAPGKGLKWMGWINTNTGEPTYAEEFKGRFAFSLETSASTAYLQINYLKNEDTATFFCARLDYDYDEDYWGQGTTLTVSS
VL: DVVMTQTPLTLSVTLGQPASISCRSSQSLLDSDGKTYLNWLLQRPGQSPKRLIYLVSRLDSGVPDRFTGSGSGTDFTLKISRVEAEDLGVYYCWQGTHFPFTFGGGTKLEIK
- % inhibition of IL-6 secretion [1]: -84.7%
- % inhibition of TNFα secretion [1]: 70.1%
- % inhibition of CD62L shedding [2]: 87.9%
